Data taken from PMC11165160, “Four novel Cit7GlcTs functional in flavonoid 7-O-glucoside biosynthesis are vital to flavonoid biosynthesis shunting in citrus” (Horticulture Research, 2024).

How the values were obtained:
Test in all cases: HPLC product assay, Michaelis-Menten fit
Type in all cases: biochemical, Citrus maxima
[1] = substrate: O=c1c(O)c(-c2ccc(O)cc2)oc2cc(O)cc(O)c12; conditions: 1 mM UDP-glucose
[2] = substrate: COc1ccc(-c2cc(=O)c3c(O)cc(O)cc3o2)cc1O; conditions: 1 mM UDP-glucose, 50 mM PBS pH 7.0, 35 °C
[3] = substrate: COc1ccc([C@@H]2CC(=O)c3c(O)cc(O)cc3O2)cc1O; conditions: 1 mM UDP-glucose
[4] = substrate: O=C1C[C@@H](c2ccc(O)cc2)Oc2cc(O)cc(O)c21; conditions: 1 mM UDP-glucose
[5] = substrate: O=C1C[C@@H](c2ccc(O)c(O)c2)Oc2cc(O)cc(O)c21; conditions: 1 mM UDP-glucose, 50 mM PBS pH 7.0, 35 °C
Excerpt: (§1) HPLC product assay, Michaelis-Menten fit on CgUGT89AK1

[6] = substrate: COc1ccc(-c2cc(=O)c3c(O)cc(O)cc3o2)cc1O; conditions: 1 mM UDP-glucose, 50 mM PBS pH 7.0, 35 °C; remark: listed apart in the source
Excerpt: as §1

[7] = substrate: O=c1c(O)c(-c2ccc(O)c(O)c2)oc2cc(O)cc(O)c12; conditions: 1 mM UDP-glucose, 50 mM PBS pH 7.0, 35 °C
Excerpt: as §1

[8] = substrate: O=c1cc(-c2ccc(O)cc2)oc2cc(O)cc(O)c12; conditions: 1 mM UDP-glucose, 50 mM PBS pH 7.0, 35 °C
Excerpt: as §1

[9] = substrate: O=C1C[C@@H](c2ccc(O)cc2)Oc2cc(O)cc(O)c21; conditions: 1 mM UDP-glucose, 50 mM PBS pH 7.0, 35 °C
Excerpt: as §1

[10] = substrate: O=c1cc(-c2ccc(O)cc2)oc2cc(O)cc(O)c12; conditions: 1 mM UDP-glucose

B1: CgUGT90A31 (Citrus maxima) (protein)
chain: MGSISSDHHVVLFPFMSKGHIIPILNLVQLLLRRPRVTVTVFTTPANRPFTSKFLSNSSTAACSIIDIPYPENVPEIPAGVESTDKLPSMSLYVPFTRATKLMQPHFERALESLPRVSFMVSDGFLWWTLDSANKFGFPRLVFYGMNNYAMSVSRSVGQNRLLSGVQSDDELLTLPEFPWIKITKKDFDSPITDPEPKGPHFELFIDQIVSTSNSHGMIVNSFYELEPLFADHCNRVGKPKSWCVGPLCLAELPPKNEEPKNELSKPAWIKWLDRKLDEGSSVMYVAFGSQAEISAQQLKEIAIGLEQSKVNFLWVIRTAQSELGDGFEERVKGRGLVVRDWVDQNEILWHGSVQGFLSHCGWNSTLESICAGVPILAWPMMAEQPLNARMVTEEIKVGLRVETCDGSVRGFVKWRGLEKTMRELMGGEKGEKARTKVKELSEIARKAMEEGKGSSWRCLDMLLDETCKLEQHD
Km ([1]; 50 mM PBS pH 7.0, 35 °C): 56.20 ± 19.14 µM
kcat/Km ([1]; 50 mM PBS pH 7.0, 35 °C): 6.48 M⁻¹ s⁻¹
Km [2]: 34.93 ± 10.80 µM
kcat/Km [2]: 15.8 M⁻¹ s⁻¹
Km ([3]; 50 mM PBS pH 7.0, 35 °C): 179.10 ± 48.24 µM
kcat/Km ([3]; 50 mM PBS pH 7.0, 35 °C): 51.4 M⁻¹ s⁻¹
Km ([4]; 50 mM PBS pH 7.0, 35 °C): 139.04 ± 40.50 µM
kcat/Km ([4]; 50 mM PBS pH 7.0, 35 °C): 52 M⁻¹ s⁻¹

B2: CgUGT89AK1 (Citrus maxima) (protein)
chain: MLPAGAHILVYPFPTSGHIIPLLDLTNRLLTLGLNVTVLITQNNLPLLDSLNANHPSTSLQSLVLPQPKWPAGSPATRLLKFMRVLRELHYPALLDWFKSHPSPPVAILSDFFLGWTQGLAAELGLPRVVFSPSGAFALSVSFAMWTDLPTNDDPDNVDALVSFPRVPNCPVYHWYQISHLYRTLKEGDPDWDLHRSNMMANKTSWGIVFNSFAELERVYIDHMKKEMGHDRVWAVGPVLPPDDDLVESMCRGGSSSVPAHDVLTWLDSRRDESVVYVCFGSRYVLTAKQIHELAAALEKTDVDFVYCVREPDERHASQDCGVLPDGFEDRVAGRGYVIRGWSQQVAILRHKAVGAFLTHCGWNSVLEGVSAGVVMLTWPMDADQYTNAQLLVDQLGVGIRVGEGTRNIPESGELARLLAQSVDGPRRERLKARELSGAALSAVVKGGSSDRDLNDFIKRINELKSGKNLTAV
Km [5]: 26.25 ± 5.65 µM
kcat/Km [5]: 154 M⁻¹ s⁻¹
Km [6]: 6.16 ± 2.64 µM
kcat/Km [6]: 284 M⁻¹ s⁻¹
Km [7]: 19.44 ± 11.00 µM
kcat/Km [7]: 1350 M⁻¹ s⁻¹
Km [8]: 24.37 ± 5.03 µM
kcat/Km [8]: 107 M⁻¹ s⁻¹
Km [9]: 52.88 ± 17.30 µM
kcat/Km [9]: 48.3 M⁻¹ s⁻¹

B3: CgUGT73AC12 (Citrus maxima) (protein)
chain: MDSKSSPVEMFFFPYVGGGHQIPMVDIARIFAAHGAKSTIITSPKHALSFQKSINRNQQSGLPITIKTLHLPDDIEIPDTDMSATPRTDTSMLQKPLKSLLLDSRPDCIVHDMFHHWSADVINSMNIPRIVFNGNCCFSRCVLENVRKYKPHEKVSSDYEPFVVPGLPDKIELTSSQLPVGARQQEAGSVHKMFAKPEEKSFGIVVNSFYDLEPAYVEYFKQDLGNDKAWFVGPVSLCNRNIEDKAERGQKTSIDEGKILSFLDSKETNSVLYISFGSLARLAPEQLLEIAYGLEASNHSFIWVVGKIFQSPGTRKENGIEENWLPSGFEERMRESKRGLIIRGWAPQLLILEHAAVGGFMTHCGWNSTLESVSAGVPMVTWPITAEQFSNEKLISDVLKIGVKVGSVNWVSWSTEPSAAVGRDKVEVAVKRLMGTGEEAAEMRRRAGELGEKAKNAVEEGGSSFIDAEALLQELKSLSRI
Km ([1]; 50 mM PBS pH 7.0, 35 °C): 92.58 ± 55.02 µM
kcat/Km ([1]; 50 mM PBS pH 7.0, 35 °C): 11 M⁻¹ s⁻¹
Km ([3]; 50 mM PBS pH 7.0, 35 °C): 169.68 ± 54.77 µM
kcat/Km ([3]; 50 mM PBS pH 7.0, 35 °C): 5.62 M⁻¹ s⁻¹
Km ([10]; 50 mM PBS pH 7.0, 35 °C): 153.66 ± 62.17 µM
kcat/Km ([10]; 50 mM PBS pH 7.0, 35 °C): 5.93 M⁻¹ s⁻¹
Km ([4]; 50 mM PBS pH 7.0, 35 °C): 105.34 ± 35.62 µM
kcat/Km ([4]; 50 mM PBS pH 7.0, 35 °C): 6.36 M⁻¹ s⁻¹

B4: CgUGT89D30 (Citrus maxima) (protein)
chain: MSSSNTRTTHILIFPYPAQGHMLPLLDLTHQLSLKDLDITILVTPKNLPILSPLLDAHPAIKTLVLPFPSHPSIPPGIENVRELGNRGNYPIMTALGKLYGPIIDWFRSQANPPVAILSDFFLGWTLKLAHQLNIVRIAFFSSGWLLASVVDYCWHHIGDVKSLDVVEFPDLPRYPVFKRRHLPSMVRSYKESDPESQFVKDGNLANTSSWGCVFNSFDALEGEYSDYLKRKMGHDRVFGVGPLSLVGLESTGGGDPGLGPNDHVTKWLDGCPDGSVVYVCFGSQKALKRDQMEALASGLEKSGIRFLWVVKTGMIGKGDDGYGSMPDGFEEQVAGRGLVLKGWAPQVSILSHKAVGGFLSHCGWNSLLEGIVGGAMILAWPMEADQFVNAKLLVEDLGVAVQVCEGADSVPDSDELGNIIAESLSQRDEVKIKAKELRDDALAAVKSDGSSARDLDRLVEELRNLHAK
Km ([1]; 50 mM PBS pH 7.0, 30 °C): 35.76 ± 18.07 µM
kcat/Km ([1]; 50 mM PBS pH 7.0, 30 °C): 21.9 M⁻¹ s⁻¹
Km ([3]; 50 mM PBS pH 7.0, 30 °C): 207.41 ± 77.33 µM
kcat/Km ([3]; 50 mM PBS pH 7.0, 30 °C): 11 M⁻¹ s⁻¹
Km ([10]; 50 mM PBS pH 7.0, 30 °C): 17.34 ± 10.85 µM
kcat/Km ([10]; 50 mM PBS pH 7.0, 30 °C): 88.2 M⁻¹ s⁻¹
Km ([4]; 50 mM PBS pH 7.0, 30 °C): 79.57 ± 5.51 µM
kcat/Km ([4]; 50 mM PBS pH 7.0, 30 °C): 18.1 M⁻¹ s⁻¹
